Marks after values point to notes of the source that are not given here. No end group written: not given here.
Legend:
Mouse GLP-1R = target: T1, Mouse GLP-1R (Mus musculus, UniProt O35659); test: HTRF cAMP assay in HEK-293 cells, mouse GLP-1R; format: cell-based
T1 construct: expressed in transfected cells; host or cells: HEK-293
T1 sequence (O35659 22-463): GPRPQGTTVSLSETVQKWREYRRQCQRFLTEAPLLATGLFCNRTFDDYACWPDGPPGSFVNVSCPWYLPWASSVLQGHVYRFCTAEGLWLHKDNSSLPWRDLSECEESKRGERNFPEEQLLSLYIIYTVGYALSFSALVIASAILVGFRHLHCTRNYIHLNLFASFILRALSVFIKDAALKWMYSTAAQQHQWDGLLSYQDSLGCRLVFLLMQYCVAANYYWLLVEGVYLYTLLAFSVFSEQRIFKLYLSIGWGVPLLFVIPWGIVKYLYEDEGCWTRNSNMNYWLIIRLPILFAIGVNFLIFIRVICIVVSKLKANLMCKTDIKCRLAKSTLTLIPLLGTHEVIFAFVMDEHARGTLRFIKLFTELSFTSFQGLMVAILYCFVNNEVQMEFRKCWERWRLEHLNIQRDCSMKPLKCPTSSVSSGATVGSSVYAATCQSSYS
Description: (§1) Recombinant HEK-293 cells were grown in T175 culture flasks placed at 37° C. to near confluence in medium (DMEM with 10% FBS) and collected in 2 mL vials in cell culture medium containing 10% DMSO in concentrations of 1-5×10^7 cells/mL. Each vial contained 1.8 mL cell suspension. The vials were slowly frozen to −80° C. in an isopropanol chamber, and then transferred to liquid nitrogen for long term storage.
(§2) Prior to their use, frozen cells were thawed quickly at 37° C., washed with 20 mL cell buffer (1×HBSS; 20 mM HEPES, 0.1% BSA) and centrifuged for 5 minutes at 900 rpm. Cells were resuspended in assay buffer (cell buffer plus 2 mM IBMX) and adjusted to a cell density of 1×10^6 cells/mL. For measurement, 5 μL cell suspension (final 5×10^3 cells/well) and 5 μL of test compound were added to a well of a 384-well plate, followed by incubation for 30 minutes at room temperature. […] The cAMP content of cells was determined using a kit from Cisbio Corp. (cat. no. 62AM4PEC) based on Homogenous Time Resolved Fluorescence (HTRF).

Human GLP-1R = target: T2, Human GLP-1R (Homo sapiens, UniProt P43220); test: HTRF cAMP assay in HEK-293 cells, human GLP-1R; format: cell-based
T2 construct: expressed in transfected cells; host or cells: HEK-293
Description: as §1, §2

Monkey GLP-1R = target: T3, Monkey GLP-1R (Macaca fascicularis, UniProt F8V479); test: HTRF cAMP assay in HEK-293 cells, monkey GLP-1R; format: cell-based
T3 construct: expressed in transfected cells; host or cells: HEK-293
Description: as §1, §2

[1] = target: T4, human FGFR1c together with human beta-Klotho (KLB) (human, UniProt P11362 22-822; Q86Z14 1-1044); test: cell-based or functional assay
[2] = target: T4, human FGFR1c together with human …; test: cell-based or functional assay; remark: listed apart in the source
[3] = Pharmacokinetics after single subcutaneous administration in mouse; format: in vivo, female C57BI/6 mice; details: FGF21 intact assay; 0.3 mg/kg subcutaneous
Description: Plasma concentrations and pharmacokinetic parameters of GLP-1 RA/FGF21 Fc fusion proteins were determined after single subcutaneous administration of 0.3 mg/kg in solution to female C57BI/6 mice or male Cynomolgus monkeys using three different methods. Blood samples were obtained at time points from 30 minutes to 168 hours after dosing. […]
a.) Bioanalytical Screening Method for Quantification of the Intact FGF21 Part of the GLP-1 RA/FGF21 Fc Fusion Proteins Plasma samples were analyzed for the intact FGF21 part of the fusion proteins with an ELISA kit (F1231-K01, Eagle Biosciences, USA). […] For the detection of this immunocomplex, the well was then incubated with a substrate solution in a timed reaction and then measured in a spectrophotometric microplate reader. […]
b.) Bioanalytical Screening Method for Quantification of the Intact Full-Length Fusions Proteins The concentration of the full-length GLP-1RA/FGF21 Fc fusion proteins in plasma were determined utilizing an ELISA method. […] Following washing 3 times with 300 μL PBS-T 150 μL read buffer was added to the wells. […]
c.) Bioanalytical Screening Method for Quantification of the Intact GLP-1 Part of the GLP-1 FGF21 Fc Fusion Proteins Plasma samples were analyzed for the intact GLP-1 part of the fusion proteins with a GLP-1 ELISA method. […]

[4] = Thermal shift assay (DSF, Sypro Orange); format: physicochemical; details: Data generated via DSF
Description: In addition, for some proteins a thermal shift assay was applied to analyze thermostability in imitation of differential scanning fluorimetry (DSF or ThermoFluor™) assays (Ahmad S. et al. (2012) Protein Science 21: 433-446; Pantoliano et al. (2001) J. Biomol. Screen 6: 429-440; Niesen et al. (2007) Nat. Protoc. 2: 2212-21). This assay is based on the observation that hydrophobic fluorescent dyes, such as Sypro™ Orange (Life Technologies, cat. No. S6651), increase their fluorescence when they bind to hydrophobic patches on a protein.
Proteins were tested by mixing a solution of each protein in PBS (Gibco) with a 160× solution of Sypro™Orange (diluted in water from a 5000×DMSO stock as provided by the supplier). The sample volume was adjusted to 20 μL with PBS. Typical conditions contained 0.8 mg/mL protein and 8× Sypro™Orange in the final mixture, but protein concentrations could be varied between 0.4 mg/mL and 1.2 mg/mL. Samples were dispensed in 96-well PCR plates (BioRad Semi-Skirt 96 white) and shortly centrifuged to remove air bubbles. […] For excitation and quantification of fluorescence, filters for wavelengths of 485 nm and 575 nm were chosen. […] In curves of fluorescence intensity against temperature, the inflection point was chosen as the measure for the melting temperature (Tm).

T4 sequence (P11362 22-822, chain 1 of 2): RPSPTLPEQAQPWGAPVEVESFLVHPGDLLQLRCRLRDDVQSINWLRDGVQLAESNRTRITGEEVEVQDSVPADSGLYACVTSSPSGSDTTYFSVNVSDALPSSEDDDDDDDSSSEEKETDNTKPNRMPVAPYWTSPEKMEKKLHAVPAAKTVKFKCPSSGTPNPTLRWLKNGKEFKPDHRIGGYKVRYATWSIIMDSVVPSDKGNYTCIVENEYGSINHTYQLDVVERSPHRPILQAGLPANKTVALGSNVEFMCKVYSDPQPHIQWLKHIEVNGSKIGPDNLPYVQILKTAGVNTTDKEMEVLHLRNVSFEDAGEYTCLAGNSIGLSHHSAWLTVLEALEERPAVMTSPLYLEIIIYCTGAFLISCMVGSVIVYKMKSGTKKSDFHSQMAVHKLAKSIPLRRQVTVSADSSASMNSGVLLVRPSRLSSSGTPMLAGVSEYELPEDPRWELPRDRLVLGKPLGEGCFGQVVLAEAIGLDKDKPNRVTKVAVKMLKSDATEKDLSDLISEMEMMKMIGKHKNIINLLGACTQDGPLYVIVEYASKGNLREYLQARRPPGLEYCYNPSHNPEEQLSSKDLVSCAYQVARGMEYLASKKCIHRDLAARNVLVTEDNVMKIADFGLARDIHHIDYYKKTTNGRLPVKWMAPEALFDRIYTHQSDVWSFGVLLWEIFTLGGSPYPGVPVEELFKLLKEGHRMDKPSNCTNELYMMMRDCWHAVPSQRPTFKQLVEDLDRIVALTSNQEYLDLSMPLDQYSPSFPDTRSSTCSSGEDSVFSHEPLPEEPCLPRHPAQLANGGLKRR
T4 sequence (Q86Z14 whole entry, chain 2 of 2): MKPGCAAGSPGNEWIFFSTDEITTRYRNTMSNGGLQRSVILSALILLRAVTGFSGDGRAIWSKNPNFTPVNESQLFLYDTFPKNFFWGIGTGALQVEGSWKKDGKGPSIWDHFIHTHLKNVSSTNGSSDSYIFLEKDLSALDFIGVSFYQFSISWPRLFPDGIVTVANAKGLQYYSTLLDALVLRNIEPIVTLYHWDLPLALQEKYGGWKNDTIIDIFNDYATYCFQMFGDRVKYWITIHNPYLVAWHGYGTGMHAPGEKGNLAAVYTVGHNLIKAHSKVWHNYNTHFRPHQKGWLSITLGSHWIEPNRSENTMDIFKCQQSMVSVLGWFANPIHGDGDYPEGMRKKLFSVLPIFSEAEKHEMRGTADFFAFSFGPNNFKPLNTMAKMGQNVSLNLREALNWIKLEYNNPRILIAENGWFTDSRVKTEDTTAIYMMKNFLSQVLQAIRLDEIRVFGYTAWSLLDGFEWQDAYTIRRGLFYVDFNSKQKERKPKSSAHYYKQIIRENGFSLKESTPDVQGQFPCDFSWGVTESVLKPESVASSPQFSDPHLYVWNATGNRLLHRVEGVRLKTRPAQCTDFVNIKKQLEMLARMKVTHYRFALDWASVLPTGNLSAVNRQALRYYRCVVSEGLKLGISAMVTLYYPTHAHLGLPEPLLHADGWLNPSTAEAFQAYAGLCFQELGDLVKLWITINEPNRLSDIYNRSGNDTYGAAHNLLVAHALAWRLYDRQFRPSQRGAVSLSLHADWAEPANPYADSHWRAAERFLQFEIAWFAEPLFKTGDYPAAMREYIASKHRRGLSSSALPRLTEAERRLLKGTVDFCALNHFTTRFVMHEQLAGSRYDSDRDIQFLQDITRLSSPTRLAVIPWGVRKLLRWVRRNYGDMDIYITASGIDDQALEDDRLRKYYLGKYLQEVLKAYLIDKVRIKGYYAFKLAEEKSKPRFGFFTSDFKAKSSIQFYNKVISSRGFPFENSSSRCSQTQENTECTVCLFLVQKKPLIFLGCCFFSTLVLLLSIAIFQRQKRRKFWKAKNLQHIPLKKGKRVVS
T2 sequence (P43220 24-463): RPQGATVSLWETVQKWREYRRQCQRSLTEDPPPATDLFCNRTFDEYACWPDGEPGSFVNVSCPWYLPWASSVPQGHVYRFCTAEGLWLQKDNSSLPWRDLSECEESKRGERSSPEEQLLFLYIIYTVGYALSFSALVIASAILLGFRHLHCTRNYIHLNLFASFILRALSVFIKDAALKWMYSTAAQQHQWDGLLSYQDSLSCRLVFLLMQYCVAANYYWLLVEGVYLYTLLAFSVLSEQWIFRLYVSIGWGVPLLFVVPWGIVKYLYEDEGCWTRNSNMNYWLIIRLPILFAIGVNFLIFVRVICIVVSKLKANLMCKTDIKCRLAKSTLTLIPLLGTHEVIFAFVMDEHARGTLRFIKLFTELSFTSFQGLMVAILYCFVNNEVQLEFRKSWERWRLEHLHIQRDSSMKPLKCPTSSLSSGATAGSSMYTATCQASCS
T3 sequence (F8V479 24-463): as the sequence (P43220 24-463) above, with S112N, F120S, S202G, L205V, L237F, W241R, I249V counted along it

GHGEGTFTSDKSKQLEEEAVRLFIEWLKAGGPKKIRYS-NH2 [compound 278]
EC50 (Mouse GLP-1R): 7.65 pM | EC50 (Human GLP-1R): 10.5 pM | EC50 (Monkey GLP-1R): 5.74 pM

B1: G-FGF21 (mature human wild-type FGF21 with an additional N-terminal Gly) (ligand)
chain: GHPIPDSSPLLQFGGQVRQRYLYTDDAQQTEAHLEIREDGTVGGAADQSPESLLQLKALKPGVIQILGVKTSRFLCQRPDGALYGSLHFDPEACSFRELLLEDGYNVYQSEAHGLPLHLPGNKSPHRDPAPRGPARFLPLPGLPPAPPEPPGILAPQPPDVGSSDPLSMVGPSQGRSPSYAS
pERK ICW EC50 [1]: 0.17 nmol/L | pFGFR ICW EC50 [2]: 4.49 nmol/L

B2: 252 (protein)
chain: GHPIPDSSPLLQFGGQVRQRYLYTDDAQQTEAHLEIREDGTVGGAADQSPESLLQLKALKPGVIQILGVKTSRFLCQRPDGALYGSLHFDPEACSFRELLLEDGYNVYQSEAHGLPLHLPGNKSPHRDPAPRGPARFLPLPGLPPAPPEPPGILAPQPPDVGSSDPLSMVGPSQGRSPSYAS
modifications: G-FGF21
t1/2 mouse [3]: 42 min | Tm (melting temperature) [4]: 43.1* ° C.
